Where “and” joins values, the source holds several entries; their conditions need not be identical. Identical values can stand only once.
Assay: Homogeneous enzyme immunoassay calibration curves with antibody clones and DAMP-Y-S-G6PDH conjugate
Assay type: biochemical
Description: MTX antibodies and enzyme conjugates may be advantageously used in accordance with the present disclosure in a homogeneous assay format to detect a MTX analyte in samples. Antibodies may be evaluated by known methods, such as, conjugate inhibition, conjugate modulation, calibration, cross-reactivity and spike-recovery. For these purposes, cloned antibodies (28H3-K1, 32H1-K2, 64H1-K1) is added into the antibody diluent to prepare the antibody reagent. The antibody reagent includes antibody as prepared above, buffer, salts, stabilizers, preservatives, NAD^+, and glucose-6-phosphate. Enzyme conjugate DAMP-Y-S-G6PDH is added into the conjugate diluent to prepare the enzyme conjugate reagent. The enzyme conjugate reagent includes the conjugate, buffer, stabilizers, salts, and preservatives.
A clinical chemistry analyzer useful to evaluate antibodies and enzyme conjugates in a homogeneous enzyme immunoassay format is the Beckman Coulter AU480 (Beckman Coulter, Brea, CA). The Beckman AU480 is an automated biochemistry spectrophotometer analyzer used by medical laboratories to process biological fluid specimens, such as urine, cerebrospinal fluid, oral fluids, plasma and serum. The analyzer is capable of maintaining a constant temperature, pipetting samples, mixing reagents, measuring light absorbance and timing the reaction accurately.
A homogeneous enzyme immunoassay is conducted using a liquid, ready-to-use, two reagent assay as described above. Typically, 2-15 μL MTX analyte-containing sample is incubated with 75-150 μL antibody reagent followed by the addition of the 50-100 μL enzyme conjugate reagent.
The assay is a homogeneous enzyme immunoassay technique used for the analysis of MTX in biological fluids. The assay is based on competition between MTX in the specimen and -MTX or MTX analog (DAMP derivatives of the current invention) labeled with the enzyme glucose-6-phosphate dehydrogenase (G6PDH) for antibody binding sites. Enzyme activity decreases upon binding to the antibody, so the drug concentration in the sample can be measured in terms of enzyme activity. Active enzyme converts nicotinamide adenine dinucleotide (NAD^+) to NADH, resulting in an absorbance change that is measured spectrophotometrically at 340 nm. […] The change in the absorbance at 340 nm can be measured spectrophotometrically and is proportional to the enzyme conjugate activity which in turn is related to analyte concentration (see FIG. 14).
MTX analyte antibodies and enzyme conjugate (DAMP-Y-S-G6PDH) were used in a homogeneous assay format to generate calibration curves using MTX standards as described in Example 12. Antibody reagents were prepared as described in Example 8 through 11 using DAMP-Y-KLH generated rabbit antibodies and cloned antibodies through B-cell. Enzyme conjugate DAMP-Y-S-G6PDH was used to prepare the conjugate reagent. A 6-point calibration curve was generated on the Beckman AU480 clinical chemistry analyzer as described in Examples 12. […]

[1] = antibody 82.5 μL/g, Cals 0.00 μM
[2] = antibody 82.5 μL/g, Cals 0.05 μM
[3] = antibody 82.5 μL/g, Cals 0.15 μM
[4] = antibody 82.5 μL/g, Cals 0.50 μM
[5] = antibody 82.5 μL/g, Cals 1.20 μM
[6] = antibody 90.0 μL/g, Cals 0.00 μM
[7] = antibody 90.0 μL/g, Cals 0.05 μM
[8] = antibody 90.0 μL/g, Cals 0.15 μM
[9] = antibody 90.0 μL/g, Cals 0.50 μM
[10] = antibody 90.0 μL/g, Cals 1.20 μM
[11] = antibody 100.0 μL/g, Cals 0.00 μM
[12] = antibody 100.0 μL/g, Cals 0.05 μM
[13] = antibody 100.0 μL/g, Cals 0.15 μM
[14] = antibody 100.0 μL/g, Cals 0.50 μM
[15] = antibody 100.0 μL/g, Cals 1.20 μM
[16] = antibody 200.0 μL/g, 0.00 to 0.05 μM
[17] = antibody 200.0 μL/g, 0.00 to 1.20 μM
[18] = antibody 200.0 μL/g, 0.05 to 0.15 μM
[19] = antibody 200.0 μL/g, 0.25 to 0.50 μM
[20] = antibody 200.0 μL/g, 0.50 to 1.20 μM
[21] = antibody 200.0 μL/g, Cals 0.00 μM
[22] = antibody 200.0 μL/g, Cals 0.05 μM
[23] = antibody 200.0 μL/g, Cals 0.15 μM
[24] = antibody 200.0 μL/g, Cals 0.50 μM
[25] = antibody 200.0 μL/g, Cals 1.20 μM

B1: 64H1/64K1: rabbit recombinant monoclonal antibody to MTX, VH SEQ ID NO: 17, VL SEQ ID NO: 21 (antibody)
VH: METGLRWLLLVAVLKGVQCQSLEESGGRLVTPGTPMTLTCTASGFSLVKYYMTWVRQAPGKGLEYIGVIWSGGMTYYASWAKGRFTISRTSTTVDLKIISPTTEDTATYFCARERDYFDGYIGNDIWGQGTLVTVSSGQPKAPSVFPLAPCCGDTPSSTVTLGCLVKGYLPEPVTVTWNSGTLTNGVRTFPSVRQSSGLYSLSSVVSVTSSSQPVTCNVAHPATNTKVDKTVAPSTCSKPTCPPPELLGGPSVFIFPPKPKDTLMISRTPEVTCVVVDVSQDDPEVQFTWYINNEQVRTARPPLREQQFNSTIRVVSTLPITHQDWLRGKEFKCKVHNKALPAPIEKTISKARGQPLEPKVYTMGPPREELSSRSVSLTCMINGFYPSDISVEWEKNGKAEDNYKTTPAVLDSDGSYFLYNKLSVPTSEWQRGDVFTCSVMHEALHNHYTQKSISRSPGK
VL: MDTRAPTQLLGLLLLWLPGATFAQVLTQTPSSVSAAVGGTVTINCQSSQSVWSRHLSWFQQKPGQPPKLLIYKASTLASGVPSRFSGSGSGTQFTLTISDVQCDDAATYYCLGGYTCIRDDCRAFGGGTEVVVKGDPVAPTVLIFPPAADQVATGTVTIVCVANKYFPDVTVTWEVDGTTQTTGIENSKTPQNSADCTYNLSSTLTLTSTQYNSHKEYTCKVTQGTTSVVQSFNRGDC
- Separation (antibody 82.5 μL/g, 0.00 to 0.05 μM): 39.3 ΔmA/min.
- Separation (antibody 82.5 μL/g, 0.00 to 1.20 μM): 256.1 ΔmA/min.
- Separation (antibody 82.5 μL/g, 0.05 to 0.15 μM): 76.7 ΔmA/min.
- Separation (antibody 82.5 μL/g, 0.25 to 0.50 μM): 55.8 ΔmA/min.
- Separation (antibody 82.5 μL/g, 0.50 to 1.20 μM): 22.6 ΔmA/min.
- Absorbance [1]: 0.3378 and 0.3384
- Average Rate [1]: 338.10 mA/min
- Absorbance [2]: 0.3775 and 0.3772
- Average Rate [2]: 377.35 mA/min
- Absorbance [3]: 0.4548 and 0.4533
- Average Rate [3]: 454.05 mA/min
- Absorbance [4]: 0.5708 and 0.5725
- Average Rate [4]: 571.65 mA/min
- Absorbance [5]: 0.5943 and 0.5941
- Average Rate [5]: 594.20 mA/min
- Separation (antibody 90.0 μL/g, 0.00 to 0.05 μM): 35.3 ΔmA/min.
- Separation (antibody 90.0 μL/g, 0.00 to 1.20 μM): 256.5 ΔmA/min.
- Separation (antibody 90.0 μL/g, 0.05 to 0.15 μM): 69.9 ΔmA/min.
- Separation (antibody 90.0 μL/g, 0.25 to 0.50 μM): 60.8 ΔmA/min.
- Separation (antibody 90.0 μL/g, 0.50 to 1.20 μM): 30.8 ΔmA/min.
- Absorbance [6]: 0.3355 and 0.3373
- Average Rate [6]: 336.40 mA/min
- Absorbance [7]: 0.3723 and 0.3711
- Average Rate [7]: 371.70 mA/min
- Absorbance [8]: 0.4421 and 0.4412
- Average Rate [8]: 441.65 mA/min
- Absorbance [9]: 0.5624 and 0.5618
- Average Rate [9]: 562.10 mA/min
- Absorbance [10]: 0.5925 and 0.5933
- Average Rate [10]: 592.90 mA/min
- Separation (antibody 100.0 μL/g, 0.00 to 0.05 μM): 28.3 ΔmA/min.
- Separation (antibody 100.0 μL/g, 0.00 to 1.20 μM): 250.1 ΔmA/min.
- Separation (antibody 100.0 μL/g, 0.05 to 0.15 μM): 63.1 ΔmA/min.
- Separation (antibody 100.0 μL/g, 0.25 to 0.50 μM): 72.9 ΔmA/min.
- Separation (antibody 100.0 μL/g, 0.50 to 1.20 μM): 38.7 ΔmA/min.
- Absorbance [11]: 0.3401 and 0.3411
- Average Rate [11]: 340.60 mA/min
- Absorbance [12]: 0.3679 and 0.3698
- Average Rate [12]: 368.85 mA/min
- Absorbance [13]: 0.4318 and 0.4320
- Average Rate [13]: 431.90 mA/min
- Absorbance [14]: 0.5529 and 0.5511
- Average Rate [14]: 552.00 mA/min
- Absorbance [15]: 0.5913 and 0.5901
- Average Rate [15]: 590.70 mA/min

B2: 28H3/28K1: rabbit recombinant monoclonal antibody to MTX, VH SEQ ID NO: 1, VL SEQ ID NO: 5 (antibody)
VH: METGPRWLLLVAVLKGVQCQSLEESGGDLVKPGASLALTCKASGLDFSRSDHWICWVRQAPGKGLESIGCIYIGSGTFVRSGTTYYASWAKGRFTISKTSSTTVTLQMTSLTGADTATYFCARGFYATDGYGGPSYLNLWGQGTLVTVSSGQPKAPSVFPLAPCCGDTPSSTVTLGCLVKGYLPEPVTVTWNSGTLTNGVRTFPSVRQSSGLYSLSSVVSVTSSSQPVTCNVAHPATNTKVDKTVAPSTCSKPTCPPPELLGGPSVFIFPPKPKDTLMISRTPEVTCVVVDVSQDDPEVQFTWYINNEQVRTARPPLREQQFNSTIRVVSTLPITHQDWLRGKEFKCKVHNKALPAPIEKTISKARGQPLEPKVYTMGPPREELSSRSVSLTCMINGFYPSDISVEWEKNGKAEDNYKTTPAVLDSDGSYFLYNKLSVPTSEWQRGDVFTCSVMHEALHNHYTQKSISRSPGK
VL: MDTRAPTQLLGLLLLWLPGARCADIVMTQTPASVEAAVGGTVTIKCQASESISSYCSWFQQKPGQPPKLLIYRASTLESGVPSRFKGSGSGTQFTLTISDLECADAATYYCQSYAYSSPDSYGSTFGGGTEVVVKGDPVAPTVLIFPPAADQVATGTVTIVCVANKYFPDVTVTWEVDGTTQTTGIENSKTPQNSADCTYNLSSTLTLTSTQYNSHKEYTCKVTQGTTSVVQSFNRGDC
- Separation [16]: 43.2 ΔmA/min.
- Separation [17]: 157.5 ΔmA/min.
- Separation [18]: 76.3 ΔmA/min.
- Separation [19]: 0.2 ΔmA/min.
- Separation [20]: 1.8 ΔmA/min.
- Absorbance [21]: 0.4534 and 0.4555
- Average Rate [21]: 454.45 mA/min
- Absorbance [22]: 0.4989 and 0.4964
- Average Rate [22]: 497.65 mA/min
- Absorbance [23]: 0.5737 and 0.5742
- Average Rate [23]: 573.95 mA/min
- Absorbance [24]: 0.6112 and 0.6092
- Average Rate [24]: 610.20 mA/min
- Absorbance [25]: 0.6095 and 0.6144
- Average Rate [25]: 611.95 mA/min

B3: 32H1/32K2: rabbit recombinant monoclonal antibody to MTX, VH SEQ ID NO: 9, VL SEQ ID NO: 13 (antibody)
VH: METGLRWLLLVAVLKGVQCQSLEESGGDLVKPGASLTLTCTASGLSFSSSDHWICWVRQAPGKGLESVGCIYIGSGTFVSSGTTYFASWAKGRSIISKTSSTTVTLQMTSLTAADTATYFCARGFYYTDGSGGPSYLNLWGQGTLVTVSSGQPKAPSVFPLAPCCGDTPSSTVTLGCLVKGYLPEPVTVTWNSGTLTNGVRTFPSVRQSSGLYSLSSVVSVTSSSQPVTCNVAHPATNTKVDKTVAPSTCSKPTCPPPELLGGPSVFIFPPKPKDTLMISRTPEVTCVVVDVSQDDPEVQFTWYINNEQVRTARPPLREQQFNSTIRVVSTLPITHQDWLRGKEFKCKVHNKALPAPIEKTISKARGQPLEPKVYTMGPPREELSSRSVSLTCMINGFYPSDISVEWEKNGKAEDNYKTTPAVLDSDGSYFLYNKLSVPTSEWQRGDVFTCSVMHEALHNHYTQKSISRSPGK
VL: MDTRAPTQLLGLLLLWLPGARCADIVMTQTPASVEAAVGGTVTIKCQASQTIYSYLSWFQQKPGQPPKLLIYSASTLASGVSSRFKGSRSGTESTLTISDLECADAATYYCQSYMYSSSSSFGSTFGGGTEVVVKGDPVAPTVLIFPPAADQVATGTVTIVCVANKYFPDVTVTWEVDGTTQTTGIENSKTPQNSADCTYNLSSTLTLTSTQYNSHKEYTCKVTQGTTSVVQSFNRGDC
- Separation [16]: 103.5 ΔmA/min.
- Separation [17]: 209.7 ΔmA/min.
- Separation [18]: 105.7 ΔmA/min.
- Separation [19]: −0.9 ΔmA/min.
- Separation [20]: 0.3 ΔmA/min.
- Absorbance [21]: 0.4007 and 0.3982
- Average Rate [21]: 399.45 mA/min
- Absorbance [22]: 0.5023 and 0.5035
- Average Rate [22]: 502.90 mA/min
- Absorbance [23]: 0.6091 and 0.6080
- Average Rate [23]: 608.55 mA/min
- Absorbance [24]: 0.6084 and 0.6093
- Average Rate [24]: 608.85 mA/min
- Absorbance [25]: 0.6108 and 0.6075
- Average Rate [25]: 609.15 mA/min

— US12163955B2, “Antibodies to methotrexate and uses thereof” (Ark Diagnostics, Inc., priority 2023, dated 2024)
